The results in this text go back to patent US20210401931A1, “METHODS AND MATERIALS FOR TREATING CANCER” (Mayo Foundation for Medical Education and Research, priority 2018, published 2021).

One test concerns the target T1, p65 (Homo sapiens, UniProt Q04206).
T1 construct: endogenous in cells; host or cells: 293T
Kind of test: Co-IP of p65 by SFB-tagged RL peptide in 293T cells. The class given is binding. The following applies: 48 hours after transfection. The protocol:
FIGS. 10A-G. (A) Schematic diagram depicting a set of RB-N recombinant protein constructs. Western blot analysis of p65 proteins in PC-3 cells whole cell lysate pulled down by GST or GST-RB-N recombinant proteins. Stars indicate expected molecular weight. (B) Western blot analysis of in vitro transcribed and translated p65 proteins pulled down by GST or GST-RB recombinant proteins. Stars indicate expected molecular weight. (C) Western blot analysis of WCL and co-IP samples in 293T cells 48 h after transfected with indicated constructs. (D) Schematic diagram depicting an evolutionally conserved R-linker region in the N-terminal of RB. FIG. 10D discloses SEQ ID NOS 265 and 271-274, respectively, in order of appearance. (E) Western blot analysis of WCL and co-IP samples in 293T cells 48 hours after transfected with indicated constructs. (F) PC-3 cells were transfected with indicated plasmids. Western blot analysis of HA-RB proteins in PC-3 whole cell lysate pulled down by GST or GST-p65 recombinant proteins. Stars indicate expected molecular weight. (G) Schematic diagram depicting fully positively charged RB-N allows otherwise negatively charged by S249/T252 phosphorylation to bind to negatively charged 166FSLMV170 motif (SEQ ID NO: 286) in EID1. FIG. 10G discloses SEQ ID NOS 265-266 and 275, respectively, in order of appearance. […]

Another test has as its system NFκB target genes. As to the kind of experiment: Expression of NFκB target genes in PC-3 cells (RNA-seq, RT-qPCR). The class given is cell-based, human. The following applies: PC-3 cells, IKK-16 5 μM or ACHP 20 μM, 24 hours. Here is the method: FIGS. 4A-G. RB globally regulates NFkB transcriptional program in cells. […] (F, G) PC-3 cell were treated with or without palbociclib (5 μM) for 24 hours or PC-3 cells were infected with lentivirus expressing control shRNA or RB-specific shRNA following puromycin selection after 48 hours infection. Cells were harvested for RT-qPCR (F) and ChIP-qPCR (G) analysis of p65 binding at the promotor of PD-L1, GADD45B, NR4A2, and CD83. All data were shown as mean values±SD (n=3). * P<0.05, ** P<0.01, ***P<0.001.
FIGS. 16A-K. Mutual exclusivity of PTEN and MAP3K7 gene deletion in human cancers and CDK4/6 inhibition-mediated blockage of MAP3K7 deficiency-induced death of PTEN-null cells. (A) Genetic alterations of MAP3K7 and PTEN genes in the TCGA prostate cancer dataset. (B) Genetic alterations of MAP3K7 and PTEN genes in lymphoid neoplasm diffuse large B-cell lymphoma, stomach adenocarcinoma, pancreatic cancer, liver cancer, bladder urothelial carcinoma, and lung adenocarcinoma. (C-E) PC-3 cells were infected with lentivirus expressing control or MAP3K7-specific shRNAs. 72 hours after infection, cells were harvested for western blotting (C), cell growth assay (D), and colony formation assay (E). All data were shown as mean values±SD (n=3). ns, not significant, * P<0.05 comparing to the shControl group. (F-H) LNCaP-RF prostate cancer cells were infected with lentivirus expressing control or MAP3K7-specific shRNAs. 72 hours after infection, cells were harvested for western blotting (F), cell growth assay (G), and colony formation assay (H). All data are shown as mean values±SD (n=3). ns, not significant, * P<0.05 comparing to the shControl group. (I-K) PC-3 cells were infected with lentivirus expressing control, MAP3K7 or CHD1-specific shRNAs. 72 hours after infection, cells were treated with DMSO or palbociclib (5 μM). […]
FIGS. 17A-I. Negative regulation of MAP3K7-IKK-NFκB and CHD1-NFκB signaling by RB. […] 72 hours after infection and puromycin selection, cells were injected s.c. into the right flank of NSG mice, and tumor growth was measured for 21 days. […]
(In general: Real-time PCR tracks product formation cycle by cycle.)

Test [1] deals with T2, p65 NFκB protein (human, UniProt Q04206 1-551).
T2 construct: The same entry is used for endogenous p65 and for in vitro translated p65; which one stood in the assay is told under assay; also called endogenous p65; in vitro transcribed and translated p65 (pCMV4 p65)
T2 sequence (Q04206 whole entry): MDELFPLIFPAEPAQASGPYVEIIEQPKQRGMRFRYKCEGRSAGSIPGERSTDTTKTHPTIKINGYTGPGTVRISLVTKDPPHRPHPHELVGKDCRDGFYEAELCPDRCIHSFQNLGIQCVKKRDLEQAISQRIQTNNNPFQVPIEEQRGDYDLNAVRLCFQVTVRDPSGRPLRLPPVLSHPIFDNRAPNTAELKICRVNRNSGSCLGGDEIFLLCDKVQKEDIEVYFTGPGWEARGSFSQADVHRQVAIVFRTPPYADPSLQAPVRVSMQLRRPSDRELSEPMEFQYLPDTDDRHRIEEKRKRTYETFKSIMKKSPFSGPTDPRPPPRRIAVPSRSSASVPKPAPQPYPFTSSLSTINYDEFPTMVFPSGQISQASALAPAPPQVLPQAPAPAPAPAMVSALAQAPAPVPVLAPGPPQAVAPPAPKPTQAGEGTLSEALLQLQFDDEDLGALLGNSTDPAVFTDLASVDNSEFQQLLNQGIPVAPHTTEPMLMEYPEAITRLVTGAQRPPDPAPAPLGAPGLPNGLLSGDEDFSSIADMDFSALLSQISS
Kind of test: co-IP from 293T cells transfected with SFB-tagged constructs (FIG. 10C).

In test [2] the target is T3, retinoblastoma protein RB (endogenous) (human, UniProt P06400 2-928).
T3 construct: Endogenous protein of cell lysates, phosphorylation state as in the cells; also called RB1; endogenous RB
T3 sequence (looked up): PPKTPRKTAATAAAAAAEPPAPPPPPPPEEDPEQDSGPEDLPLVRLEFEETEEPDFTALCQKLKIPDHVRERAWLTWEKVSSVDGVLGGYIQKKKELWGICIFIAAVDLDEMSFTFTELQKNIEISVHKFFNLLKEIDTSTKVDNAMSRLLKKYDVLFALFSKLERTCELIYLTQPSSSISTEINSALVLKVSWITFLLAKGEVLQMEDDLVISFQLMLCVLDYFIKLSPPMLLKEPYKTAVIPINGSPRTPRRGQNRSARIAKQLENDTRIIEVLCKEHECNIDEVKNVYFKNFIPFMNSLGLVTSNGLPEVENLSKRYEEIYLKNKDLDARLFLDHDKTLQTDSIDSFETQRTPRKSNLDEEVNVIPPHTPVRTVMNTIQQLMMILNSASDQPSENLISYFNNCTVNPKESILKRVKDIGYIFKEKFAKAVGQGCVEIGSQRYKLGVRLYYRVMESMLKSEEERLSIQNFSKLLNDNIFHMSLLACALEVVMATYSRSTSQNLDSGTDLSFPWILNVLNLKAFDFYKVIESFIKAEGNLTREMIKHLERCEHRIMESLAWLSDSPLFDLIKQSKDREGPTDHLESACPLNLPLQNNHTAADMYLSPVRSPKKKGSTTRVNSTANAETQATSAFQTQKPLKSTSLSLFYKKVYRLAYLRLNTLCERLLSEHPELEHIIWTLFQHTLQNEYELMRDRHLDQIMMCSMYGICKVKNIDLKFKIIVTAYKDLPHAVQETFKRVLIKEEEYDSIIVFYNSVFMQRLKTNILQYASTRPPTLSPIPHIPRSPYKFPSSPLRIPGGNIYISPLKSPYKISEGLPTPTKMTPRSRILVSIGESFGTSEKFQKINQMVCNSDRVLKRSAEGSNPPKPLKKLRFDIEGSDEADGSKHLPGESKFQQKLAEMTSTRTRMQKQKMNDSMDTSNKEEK
As to the kind of experiment: co-IP of endogenous proteins in PC-3 cells, western blot (FIG. 2A). On the technique in general: Immunoblotting shows a protein as a band on a membrane.

Test [3] deals with T2, p65 NFκB protein. As to the kind of experiment: in vitro protein binding assay with in vitro transcribed and translated p65 (FIG. 10A).

T1 sequence (Q04206 whole entry): as the sequence (Q04206 whole entry) above

For “RL-S249A/T252A: unphosphorylable (phosphorylation-resistant) mutant of the RL peptide (NGAPRAPRRGQNRSARIAKQL; left off: small tags and cut ends) [reference compound]”, in the test with p65, the “immunoprecipitation of p65 by SFB-tagged RL peptide” value is “largely diminished”.

Turning to `N#Cc1c(C2CCNCC2)cc(-c2c(O)cccc2OCC2CC2)nc1N` [ACHP], the “NFκB target gene expression” value in the test on NFκB target genes is “decreased”.

Take `O=C(c1ccc(Nc2nccc(-c3cc4ccccc4s3)n2)cc1)N1CCC(N2CCCC2)CC1` [IKK-16]: the “NFκB target gene expression” value in the test with NFκB target genes is on record as “decreased”.

B1: SFB-tagged RB-N (other, human, UniProt P06400 1-379, looked up, not shown: small tags and cut ends)
chain: MPPKTPRKTAATAAAAAAEPPAPPPPPPPEEDPEQDSGPEDLPLVRLEFEETEEPDFTALCQKLKIPDHVRERAWLTWEKVSSVDGVLGGYIQKKKELWGICIFIAAVDLDEMSFTFTELQKNIEISVHKFFNLLKEIDTSTKVDNAMSRLLKKYDVLFALFSKLERTCELIYLTQPSSSISTEINSALVLKVSWITFLLAKGEVLQMEDDLVISFQLMLCVLDYFIKLSPPMLLKEPYKTAVIPINGSPRTPRRGQNRSARIAKQLENDTRIIEVLCKEHECNIDEVKNVYFKNFIPFMNSLGLVTSNGLPEVENLSKRYEEIYLKNKDLDARLFLDHDKTLQTDSIDSFETQRTPRKSNLDEEVNVIPPHTPVRTVM
notes: Expressed in mammalian cells (293T, PANC-1, H1299, SK-Hep1)
With B1, the binding result with p65 NFκB protein [1] is given as “binds”.

B2: p50 subunit of NFκB (other, human, UniProt P19838 1-433, looked up)
chain: MAEDDPYLGRPEQMFHLDPSLTHTIFNPEVFQPQMALPTDGPYLQILEQPKQRGFRFRYVCEGPSHGGLPGASSEKNKKSYPQVKICNYVGPAKVIVQLVTNGKNIHLHAHSLVGKHCEDGICTVTAGPKDMVVGFANLGILHVTKKKVFETLEARMTEACIRGYNPGLLVHPDLAYLQAEGGGDRQLGDREKELIRQAALQQTKEMDLSVVRLMFTAFLPDSTGSFTRRLEPVVSDAIYDSKAPNASNLKIVRMDRTAGCVTGGEEIYLLCDKVQKDDIQIRFYEEEENGGVWEGFGDFSPTDVHRQFAIVFKTPKYKDINITKPASVFVQLRRKSDLETSEPKPFLYYPEIKDKEEVQRKRQKLMPNFSDSFGGGSGAGAGGGGMFGSGGGGGGTGSTGPGYSFPHYGFPTYGGITFHPGTTKSNAGMKHG
With B2, the binding result in test [2] is on record as “no binding”.

B3: GST-RB-NΔ1 (N-terminal portion of RB-N, amino acids 1-266) (other, not shown: a dimerising Fc or GST; small tags and cut ends)
chain: MPPKTPRKTAATAAAAAAEPPAPPPPPPPEEDPEQDSGPEDLPLVRLEFEETEEPDFTALCQKLKIPDHVRERAWLTWEKVSSVDGVLGGYIQKKKELWGICIFIAAVDLDEMSFTFTELQKNIEISVHKFFNLLKEIDTSTKVDNAMSRLLKKYDVLFALFSKLERTCELIYLTQPSSSISTEINSALVLKVSWITFLLAKGEVLQMEDDLVISFQLMLCVLDYFIKLSPPMLLKEPYKTAVIPINGSPRTPRRGQNRSARIAKQ
B3: the binding result with p65 NFκB protein [3] is “binds”.
